Reference: patent US20210332339A1

Experiments:
[1] = target: RRR-type mutant ZFA36-ND1 (ZFA36 zinc finger array, TGAAARA linker, ND1 D489R/N543R) (Bacillus SGD-V-76); test: cell-based or functional assay
[2] = target: RRR-type mutant ZFA36-FokI-ND (ZFA36 zinc finger array, TGAAARA linker, FokI nuclease domain D483R/H537R) (UniProt P14870); test: cell-based or functional assay
RRR-type mutant ZFA36-FokI-ND (ZFA36 zinc finger array, TGAAARA linker, FokI nuclease domain D483R/H537R), sequence (P14870 other isoform, or with tags, fused parts or gaps D483R H537R D483R H537R): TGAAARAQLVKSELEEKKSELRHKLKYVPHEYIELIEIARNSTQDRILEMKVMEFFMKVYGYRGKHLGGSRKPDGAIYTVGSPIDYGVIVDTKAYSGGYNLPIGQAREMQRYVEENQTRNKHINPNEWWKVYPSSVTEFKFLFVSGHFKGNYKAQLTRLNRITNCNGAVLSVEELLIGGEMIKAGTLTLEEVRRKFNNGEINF

Substance | cleavage activity of the target sequence (ZFL1-ZFA36) on the reporter, SSA reporter assay, relative to ZFA36-FokI [1] [times] | cleavage activity of the reporter, SSA reporter assay [2] [%] | cleavage activity of the reporter, SSA reporter assay, relative to the FokI-ND homodimer type [1] [%] | cleavage activity of the target sequence (ZFL1-ZFA36) on the reporter, SSA reporter assay, relative to ZFA36-FokI [2] [%]
DDD-type mutant ZFL1-ND1 (hPGRN_ZFL1 zinc finger array, TGAAARA linker, ND1 R493D/N502D) (enzyme) | 1.6 | 80 | – | –
DDD-type mutant ZFL1-FokI-ND (hPGRN_ZFL1 zinc finger array, TGAAARA linker, FokI nuclease domain R487D/N496D) (from UniProt P14870 384-579) (enzyme) | – | – | 60 | 60
